What was measured:
[1] = test system: JeKo-1, SU-DHL-6, Raji, and RL; experiment: Flow cytometry binding to non-Hodgkin lymphoma lines; parameters: species or system human; settings: Alexa Fluor 488 conjugated chimeric antibody
From the text: FIGS. 1A, 1B, 1C, 1D and 1E are FACS images showing generation and specificity of novel monoclonal antibodies against human BAFF-R. FIG. 1A is a FACS analysis of cell surface expression of hBAFF-R-GFP fusion protein in mouse fibroblast L cells. Gated on GFP-positive cells, engineered L cell clone (right plot) is compared to parental L cells (left plot). Clone D2C was selected for further studies. FIGS. 1B, 1C, 1D and 1E are FACS traces of fluorescent counts of anti-BAFF-R antibodies binding cell lines and patient samples. […] BAFF-R-negative 293T embryonic kidney cell line was used as a control. […] Parental L cells and secondary anti-hIgG-APC antibodies only were used as controls. […] The data are representative of three independent experiments. For all of FIGS. 1B-1E, the traces from top to bottom as shown in the figures correlate with the variables (e.g., antibody type or cell type) used from top to bottom shown below or next to the figures.
FIG. 10 are results of FACS analyses showing hBAFF-R mAbs recognized non-Hodgkin lymphoma cell lines in vitro. […] The traces from top to bottom as shown in the figures correlate with the variables (e.g., antibody type or cell type) used from top to bottom shown next to the figures.

[2] = test system: BAFF-R-expressing L cells and JeKo-1; experiment: ADCC chromium-51 release assay with NK cells; assay type: cell-based; settings: NK cells E:T 20:1; controls parental L cells and U266
Procedure: Antibody-induced cytotoxicities measured by chromium-51 release after incubation with C55, C90, or rituximab and effectors (NK cells or complement containing serum). NK effector cell to target ratio (E:T) of 20:1. […] Data are shown as the mean±s.d. of triplicate samples. *P<0.05 compared with NK cells by two-tailed Student's t-test.
FIG. 12 is a graph showing chimeric antibodies induced ADCC against BAFF-R expressing L cells. BAFF-R-expressing D2C L cells (targets) were labeled with chromium-51 followed by incubation overnight with chimeric mAb+NK cells (effector to target ratio, 20:1). Culture supernatant was analyzed for released chromium.
(§1) Cytotoxicity assays. Target cells (L cells, human tumor lines, primary patient samples) were labeled with chromium-51 (51Cr, Perkin Elmer, Waltham, MA) for a 51Cr release assay. Briefly, antibodies and effectors (NK cells or complement serum standard [Sigma Aldrich, St. Louis, MO]), were added to labeled target cells and incubated up to 18 hours. NK cells were enriched from PBMC (NK cell enrichment kit, Stemcell Technologies, Vancouver, Canada). 51Cr released into supernatant was detected with a Wizard Automatic Gamma Counter (Perkin Elmer).

[3] = test system: primary CLL and MCL samples; experiment: ADCC against primary samples from rituximab-treated patients; assay type: cell-based, human; settings: CLL (n=3) and MCL (n=2), E:T 20:1
Procedure: FIGS. 3A and 3B are graphs showing BAFF-R monoclonal antibodies induce in vitro Antibody Dependent Cell-Mediated Cytotoxicity (ADCC) against primary B-cell tumors. Antibody-dependent cell-mediated cytotoxicity (ADCC) effects were measured by chromium-51 release after incubation with C55, C90, or rituximab and effectors (NK cells). […] Data are shown as the mean±s.d. of triplicate samples. *P<0.05 compared with NK cells by two-tailed Student's t-test.
as §1

Mino cells = experiment: Internalization of antibody on Mino cells; assay type: cell-based, human; settings: 37° C. for 1 hour
Procedure: Mino cells were incubated with mAb C90 (0.05 μg/10^6 cells) at 4° C. for 20 minutes followed by incubation at 37° C. for 1 hour. Flow cytometry analysis was performed with anti-mouse IgG-APC. Cells were gated for surface localized antibodies (OUT) and loss of cell surface staining (IN).

JeKo-1 (MCL) = experiment: In vivo JeKo-1 MCL tumor model, antibody treatment; parameters: species or system NSG mice; settings: 200 μg antibody + NK-92-176V cells + IL-2 IV, vs PBS or NK cells alone
From the text: (§2) FIG. 4A is a schematic showing treatment schedule following Day 0 tumor challenge with minimum lethal dose of tumors. Treatments were given by IV tail vein injections. FIGS. 4B and 4C are images showing chimeric antibodies targeting human BAFF-R elicited in vivo therapeutic effects against B-cell tumors. Bioluminescence images of mice challenged with luciferase-expressing tumors: JeKo-1 (MCL) (FIG. 4B) or RS4; 11 (ALL) (FIG. 4C). Experimental groups received treatment of chimeric BAFF-R mAbs (C55 or C90, as indicated). Control group mice received PBS, NK cells alone, or rituximab on the same schedule. Data are representative of three independent experiments.
(§3) In vivo studies. For tumor models, stable, luciferase-expressing tumors lines were established for bioluminescent imaging in mouse models. Briefly, a luciferase gene was introduced into tumor lines by a lentivirus gene delivery system (pLenti7.3/V5-DEST Gateway Vector Kit, Life Technologies, Carlsbad, CA). The minimum lethal dose per mouse was determined for each tumor cell line by dose titration. Tumor cells were injected intravenously (IV) and mice were monitored by in vivo bioluminescence imaging for minimum tumor dose to ensure engraftment. Minimum lethal tumor doses were 1×10^6 JeKo-1, 5×10^5 RS4; 11, 5×10^5 JeKo-1-CD20-KO, or 2.5×10^4 Z-138 cells. […]

[4] = test system: RS4; 11 (acute lymphoblastic leukemia, ALL); experiment: In vivo RS4;11 ALL tumor model, antibody treatment; parameters: species or system NSG mice; settings: 200 μg antibody + NK-92-176V cells + IL-2 IV
From the text: as §2, §3

JeKo-1-CD20-KO clone 25 = experiment: ADCC against rituximab-resistant JeKo-1-CD20-KO; assay type: cell-based, human; settings: NK cells E:T 20:1
Procedure: FIGS. 5A, 5B and 5C are images or graphs showing chimeric BAFF-R antibodies induce ADCC on drug resistant lymphoma models in vitro. FIG. 5A is a scatterplot of FACS analysis showing CD20 binding on JeKo-1 cells following CRISPR/HDR knock-out of CD20 gene. CD20 expression on selected CD20−/−clone #25 compared to WT JeKo-1. ADCC effects measured by chromium-51 release after incubation with C55, C90, or rituximab and effectors NK cells (E:T=20:1). Percentage of cell specific lysis of target cells: rituximab-resistant JeKo-1-CD20-KO (FIG. 5B) and ibrutinib-resistant Z-138 and SP49-IR (FIG. 5C). All data are representative of two or more identical experiments. Data are shown as the mean±s.d. of triplicate samples. *P<0.05 compared with NK cells by two-tailed Student's t-test.
as §1
Generation of JeKo-1-CD20-KO. […]

JeKo-1-CD20-KO = experiment: In vivo JeKo-1-CD20-KO tumor model, antibody treatment; parameters: species or system NSG mice
From the text: (§4) FIGS. 6A and 6B are images and FIG. 6C are graphs showing chimeric antibodies targeting human BAFF-R elicited in vivo therapeutic effects against drug resistant B-cell tumors. Bioluminescence images of mice challenged with luciferase-expressing tumors JeKo-1-CD20-KO cells (FIG. 6A) or ibrutinib-resistant Z-138 cells (FIG. 6B) followed by antibody treatments as in FIG. 4. Control group mice received PBS, NK cells alone, or rituximab on the same schedule. […] Tumor free rate and survival differences between experimental and all control groups were analyzed by log-rank test (** P<0.001). Data are representative of three independent experiments.
as §3

Z-138 = experiment: In vivo ibrutinib-resistant Z-138 tumor model, antibody treatment; parameters: species or system NSG mice; settings: vs PBS or NK only
From the text: as §4, §3

B1: C55: chimeric mAb from clone 55 containing human IgG1 constant regions (antibody, V domains shown)
VH: QVTLKESGPGILKPSQTLSLTCSFSGFSLSTSGMGVGWIRQPSGKGLEWLAHIWWDDDKYYNSSLKSHLTISKDTSRNQVFLKITSVDTADTATYYCARSFGYGLDYWGQGTTLTVSS
VL: DIQMTQTTSSLSASLGDRVTISCSASQDISNYLNWYQQKPDGTVKLLIYYTSSLHSGVPSRFSGSGSGTDYSLTISSLEPEDIATYYCHQFSELPWTFGGGTKLEIK
direct binding to NHL lines [1]: exhibited direct binding | antibody-dependent cell-mediated cytotoxicity (ADCC) [2]: elicited antibody-dependent cell-mediated cytotoxicity (ADCC) specifically against BAFF-R-expressing L cells and JeKo-1 | killing by ADCC [3]: sensitive to killing by ADCC | internalization upon binding BAFF-R (Mino cells): limited internalization | tumor growth (bioluminescence) (JeKo-1 (MCL)): significant retardation of tumor growth | tumor growth (bioluminescence) [4]: markedly retarded tumor growth | sensitivity to antibody-mediated cytotoxicity (JeKo-1-CD20-KO clone 25): retained sensitivity | tumor free and long-term overall survival (JeKo-1-CD20-KO; 80-day): significant antitumor effects | tumor burden by bioluminescent imaging (JeKo-1-CD20-KO; Day 20): no visible tumors | antitumor effects (Z-138): significant effects
